Key:
[1] = target: T1, purified rat brain HK-I (Hexokinase 1) (rat, UniProt P05708 1-918); assay: channel currents of planar-lipid-bilayer-reconstituted VDAC1 before and after addition of HK-I
T1 construct: Purified from rat brain; immobilised on the SPR chip or added (28 mU/ml) to bilayer-reconstituted VDAC1; also called HK-1
T1 sequence (looked up): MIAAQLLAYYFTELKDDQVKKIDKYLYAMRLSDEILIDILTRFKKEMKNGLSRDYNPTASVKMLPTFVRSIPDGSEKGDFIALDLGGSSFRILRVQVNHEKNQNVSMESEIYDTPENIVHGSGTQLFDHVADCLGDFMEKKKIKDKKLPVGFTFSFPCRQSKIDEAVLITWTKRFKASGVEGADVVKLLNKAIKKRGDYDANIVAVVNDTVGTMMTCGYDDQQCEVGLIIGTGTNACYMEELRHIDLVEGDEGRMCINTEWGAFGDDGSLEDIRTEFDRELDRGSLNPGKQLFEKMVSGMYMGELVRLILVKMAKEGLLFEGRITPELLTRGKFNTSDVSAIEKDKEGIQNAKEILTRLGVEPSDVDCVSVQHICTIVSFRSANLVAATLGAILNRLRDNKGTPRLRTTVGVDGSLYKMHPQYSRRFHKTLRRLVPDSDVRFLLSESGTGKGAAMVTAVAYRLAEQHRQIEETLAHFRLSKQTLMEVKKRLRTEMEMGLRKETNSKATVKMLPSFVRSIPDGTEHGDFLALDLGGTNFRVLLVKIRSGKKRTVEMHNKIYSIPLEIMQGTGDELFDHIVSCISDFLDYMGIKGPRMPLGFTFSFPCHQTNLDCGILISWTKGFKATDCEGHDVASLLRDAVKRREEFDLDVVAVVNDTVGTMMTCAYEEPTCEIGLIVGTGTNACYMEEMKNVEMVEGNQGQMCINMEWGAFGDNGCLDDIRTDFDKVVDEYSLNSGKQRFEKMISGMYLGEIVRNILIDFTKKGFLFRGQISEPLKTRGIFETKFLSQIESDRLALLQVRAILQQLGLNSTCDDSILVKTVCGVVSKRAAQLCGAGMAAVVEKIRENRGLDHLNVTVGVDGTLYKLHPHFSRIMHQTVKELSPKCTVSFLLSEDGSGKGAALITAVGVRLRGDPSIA
Experimental: (§1) The dashed lines indicate the zero and the maximal current levels.
(§2) Briefly, PLB were prepared from soybean asolectin dissolved in n-decane (50 mg/ml) in a chamber containing 10 mM Hepes/KOH, pH 7.4 and 0.5 or 1M NaCl (cis/trans). Only PLBs with a resistance greater than 100 GΩ were used. Purified VDAC (about 1 ng) was added to the chamber defined as the cis side. After insertion of one or more channels into the PLB, excess protein was removed by perfusion of the cis chamber with 20 volumes of a same solution. Currents were recorded under voltage-clamp mode using a Bilayer Clamp amplifier (Warner Instruments, Hamden, Conn.). Currents were measured with respect to the trans side of the membrane (ground). The currents were low-pass filtered at 1 kHz, using a Bessal filter (Frequency Devices, Haverhill, Mass.) and digitized on-line using a Digidata 1200 interface board and pCLAMP 6 software (Axon Instruments). Sigma Plot 2000 scientific software was used for data analyses. Experiments were performed at 23-25° C. […] N-terminal VDAC1 peptides were diluted in running buffer (150 mM NaCl, 0.005% Tween-20, 4% (V/V) DMSO, 10 mM PBS, pH, 7.4) and injected onto the sensor chip at varying concentrations at a flow rate of 40 μl/min at 25° C.

[2] = target: T1, purified rat brain HK-I (Hexokinase 1); assay: channel currents of planar-lipid-bilayer-reconstituted mVDAC1 before and after addition of HK-I (28 mU/ml)
Experimental: as §1, §2

[3] = target: T2, native mVDAC1 (mouse VDAC1)
T2 chain: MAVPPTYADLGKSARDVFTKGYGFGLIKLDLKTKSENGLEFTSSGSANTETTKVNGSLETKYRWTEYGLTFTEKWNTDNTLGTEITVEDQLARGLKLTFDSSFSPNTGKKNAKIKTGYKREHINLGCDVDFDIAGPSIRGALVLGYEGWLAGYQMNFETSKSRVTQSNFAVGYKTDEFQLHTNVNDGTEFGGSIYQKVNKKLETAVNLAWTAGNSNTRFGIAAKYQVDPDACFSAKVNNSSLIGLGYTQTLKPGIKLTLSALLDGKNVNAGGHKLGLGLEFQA

[4] = target: T3, Δ(1-26)mVDAC1 (N-terminal truncated mouse VDAC1 lacking amino acids 1-26)
T3 chain: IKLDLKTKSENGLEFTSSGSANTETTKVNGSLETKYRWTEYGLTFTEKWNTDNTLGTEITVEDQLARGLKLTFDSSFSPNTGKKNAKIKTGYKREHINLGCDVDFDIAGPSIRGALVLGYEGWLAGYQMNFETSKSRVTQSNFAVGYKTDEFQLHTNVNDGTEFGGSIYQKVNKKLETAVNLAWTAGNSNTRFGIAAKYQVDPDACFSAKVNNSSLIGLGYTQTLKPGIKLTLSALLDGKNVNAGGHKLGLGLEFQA

B1: Δ(1-26)mVDAC1 (N-terminal truncated mouse VDAC1 lacking amino acids 1-26) (other)
chain: IKLDLKTKSENGLEFTSSGSANTETTKVNGSLETKYRWTEYGLTFTEKWNTDNTLGTEITVEDQLARGLKLTFDSSFSPNTGKKNAKIKTGYKREHINLGCDVDFDIAGPSIRGALVLGYEGWLAGYQMNFETSKSRVTQSNFAVGYKTDEFQLHTNVNDGTEFGGSIYQKVNKKLETAVNLAWTAGNSNTRFGIAAKYQVDPDACFSAKVNNSSLIGLGYTQTLKPGIKLTLSALLDGKNVNAGGHKLGLGLEFQA
notes: Expressed in porin-less yeast, purified and reconstituted into planar lipid bilayers; also called N-terminus truncated protein; truncated version of VDAC1
- binding result [1]: no binding (tested: 28 mU/ml)

B2: native mVDAC1 (mouse VDAC1) (other)
chain: MAVPPTYADLGKSARDVFTKGYGFGLIKLDLKTKSENGLEFTSSGSANTETTKVNGSLETKYRWTEYGLTFTEKWNTDNTLGTEITVEDQLARGLKLTFDSSFSPNTGKKNAKIKTGYKREHINLGCDVDFDIAGPSIRGALVLGYEGWLAGYQMNFETSKSRVTQSNFAVGYKTDEFQLHTNVNDGTEFGGSIYQKVNKKLETAVNLAWTAGNSNTRFGIAAKYQVDPDACFSAKVNNSSLIGLGYTQTLKPGIKLTLSALLDGKNVNAGGHKLGLGLEFQA
notes: Native full-length mouse VDAC1 expressed in porin-less yeast, purified and reconstituted into planar lipid bilayers; also called native VDAC1; bilayer-reconstituted native VDAC1
- binding result [2]: binds

B3: purified rat brain HK-I (Hexokinase 1) (protein)
chain: MIAAQLLAYYFTELKDDQVKKIDKYLYAMRLSDEILIDILTRFKKEMKNGLSRDYNPTASVKMLPTFVRSIPDGSEKGDFIALDLGGSSFRILRVQVNHEKNQNVSMESEIYDTPENIVHGSGTQLFDHVADCLGDFMEKKKIKDKKLPVGFTFSFPCRQSKIDEAVLITWTKRFKASGVEGADVVKLLNKAIKKRGDYDANIVAVVNDTVGTMMTCGYDDQQCEVGLIIGTGTNACYMEELRHIDLVEGDEGRMCINTEWGAFGDDGSLEDIRTEFDRELDRGSLNPGKQLFEKMVSGMYMGELVRLILVKMAKEGLLFEGRITPELLTRGKFNTSDVSAIEKDKEGIQNAKEILTRLGVEPSDVDCVSVQHICTIVSFRSANLVAATLGAILNRLRDNKGTPRLRTTVGVDGSLYKMHPQYSRRFHKTLRRLVPDSDVRFLLSESGTGKGAAMVTAVAYRLAEQHRQIEETLAHFRLSKQTLMEVKKRLRTEMEMGLRKETNSKATVKMLPSFVRSIPDGTEHGDFLALDLGGTNFRVLLVKIRSGKKRTVEMHNKIYSIPLEIMQGTGDELFDHIVSCISDFLDYMGIKGPRMPLGFTFSFPCHQTNLDCGILISWTKGFKATDCEGHDVASLLRDAVKRREEFDLDVVAVVNDTVGTMMTCAYEEPTCEIGLIVGTGTNACYMEEMKNVEMVEGNQGQMCINMEWGAFGDNGCLDDIRTDFDKVVDEYSLNSGKQRFEKMISGMYLGEIVRNILIDFTKKGFLFRGQISEPLKTRGIFETKFLSQIESDRLALLQVRAILQQLGLNSTCDDSILVKTVCGVVSKRAAQLCGAGMAAVVEKIRENRGLDHLNVTVGVDGTLYKLHPHFSRIMHQTVKELSPKCTVSFLLSEDGSGKGAALITAVGVRLRGDPSIA
- channel activity (currents) of bilayer-reconstituted VDAC1 [3]: addition of HK-I to bilayer-reconstituted native VDAC1 induced the channel to fluctuate between the fully open, sub-conducting state to a stable, long-lived low-conducting state
- channel activity (currents) of bilayer-reconstituted VDAC1 [4]: HK-I had no effect on channel activity of the truncated version of VDAC1

From patent publication US20100075898A1 (BEN GURION UNIVERSITY OF THE NEGEV RESEARCH AND DEVELOPMENT …, published 2010)
